In patent publication US20120251581A1 one finds CypA PPIase IC50 data, which are given here for 2 substances.

This test addresses recombinant CypA (UniProt P62937). Kind of test: cell-based or functional assay.

Chain of recombinant CypA (P62937 whole entry): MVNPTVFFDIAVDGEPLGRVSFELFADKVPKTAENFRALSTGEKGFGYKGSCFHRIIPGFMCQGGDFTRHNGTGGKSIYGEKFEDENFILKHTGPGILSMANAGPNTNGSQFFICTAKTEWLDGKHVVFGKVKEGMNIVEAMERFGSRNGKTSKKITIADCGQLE

On to Cyclosporine A, 1 (peptide), for which the CypA PPIase IC50 came out at 9.7 nM.

Take DEBIO-025, 2 (peptide): the CypA PPIase IC50 stood at 0.8 nM.
